Consider three molecules from patent US20190002587A1 (AROCELL, published 2019).

For orientation: Kd means the free concentration of one partner at which half of the binding sites on the other are occupied at equilibrium, for simple one-to-one binding. As usually defined, the koff is a measure of how fast the partners let go of each other. For orientation: kon means the rate constant with which the complex forms.

Changes are numbered by the printed parent chain. Where no end group is shown, it is not given here.

For one assay, the target named is T1, XPA 210 peptide (human, immobilized on streptavidin coated plate (biotinylated) in the Pepscan).
T1 construct: also called 31-mer; 31-mer peptide
T1 peptide: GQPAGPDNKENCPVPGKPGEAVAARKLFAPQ
Description: Pepscan ELISA, peptide on streptavidin plate. On the procedure: (§1) In order to determine the amino acid region to which the selected monoclonal antibodies bind a Pepscan analysis with biotinylated 10 amino acid target peptides was carried out. The procedure is based on synthesis of a set of 14 ten-mer amino acid peptides representing the region from 193 to 226 of the TK1 sequence as shown in connection with Example 1. Each peptide has an eight amino acids overlap and two amino acids gaps, leading to a set of 14 different peptides, see Table 2. The entire full-length peptide is also included and all these peptides were immobilized on a streptavidine coated microtiter plate. After a 1 hour adsorption step the plates were washed with PBS, 1% BSA and 0.1% Tween 20. The different antibodies were then added at approximately 5 μg/ml and the plates were incubated for 1 hour, followed by washing three times. Then a HRP conjugate was added and incubated for 1 hour. The plates were then washed six times with the same buffer. Finally the absorbance was determined with 100 μl 3,3′,5,5′-tetramethylbenzidine (TMB) substrate and the results from one test with a series of antibodies are shown in Table 2.

Assay [1] has as its target T2, ASGQPAGPDN (human, also: biotinylated, position not given here).
T2 peptide: ASGQPAGPDN
Description: Pepscan ELISA, peptide on streptavidin plate. On the procedure:
as §1
(In an ELISA, binding on a coated surface is turned into a signal by an enzyme label.)

Assay [2] concerns the target T3, GQPAGPDNKE (human, also: biotinylated).
T3 peptide: GQPAGPDNKE
Description: Pepscan ELISA, peptide on streptavidin plate. On the procedure:
as §1

In assay [3] the target is T4, PAGPDNKENC (human, also: biotinylated).
T4 peptide: PAGPDNKENC
Description: Pepscan ELISA, peptide on streptavidin plate. On the procedure:
as §1

Assay [4] concerns the target T5, GPDNKENCPV (human, also: biotinylated).
T5 peptide: GPDNKENCPV
Description: Pepscan ELISA, peptide on streptavidin plate. On the procedure:
as §1

In assay [5] the target is T6, DNKENCPVPG (human, also: biotinylated).
T6 peptide: DNKENCPVPG
Description: Pepscan ELISA, peptide on streptavidin plate. On the procedure: as §1

The target of assay [6] is T7, KENCPVPGKP (human, also: biotinylated).
T7 peptide: KENCPVPGKP
Description: Pepscan ELISA, peptide on streptavidin plate. On the procedure: as §1

Assay [7] addresses T8, NCPVPGKPGE (human, also: biotinylated).
T8 construct: also called peptide 7
T8 peptide: NCPVPGKPGE
Description: Pepscan ELISA, peptide on streptavidin plate. On the procedure:
as §1

The target in assay [8] is T9, PVPGKPGEAV (human, also: biotinylated).
T9 construct: also called peptide 8
T9 peptide: PVPGKPGEAV
Description: Pepscan ELISA, peptide on streptavidin plate. On the procedure:
as §1

Assay [9] deals with T10, PGKPGEAVAA (human, also: biotinylated).
T10 peptide: PGKPGEAVAA
Description: Pepscan ELISA, peptide on streptavidin plate. On the procedure:
as §1

The target of assay [10] is T11, KPGEAVAARK (human, also: biotinylated).
T11 peptide: KPGEAVAARK
Description: Pepscan ELISA, peptide on streptavidin plate. On the procedure:
as §1

Assay [11] deals with T12, GEAVAARKLF (human, also: biotinylated).
T12 construct: also called 10-mer; 10-mer peptide
T12 peptide: GEAVAARKLF
Description: Pepscan ELISA, peptide on streptavidin plate. On the procedure:
as §1

In assay [12] the target is T13, AVAARKLFAP (human, also: biotinylated).
T13 peptide: AVAARKLFAP
Description: Pepscan ELISA, peptide on streptavidin plate. On the procedure: as §1

The target of assay [13] is T14, AARKLFAPQQ (human, also: biotinylated, position not given here).
T14 peptide: AARKLFAPQQ
Description: Pepscan ELISA, peptide on streptavidin plate. On the procedure: as §1

For assay [14], the target named is T15, ARKLFAPQQI (human, also: biotinylated, position not given here).
T15 peptide: ARKLFAPQQI
Description: Pepscan ELISA, peptide on streptavidin plate. On the procedure: as §1

Assay [15] addresses T16, human recombinant TK1 (human, UniProt P04183 1-234, limits assumed).
T16 construct: also called human rTK1; rTK1
T16 sequence (looked up): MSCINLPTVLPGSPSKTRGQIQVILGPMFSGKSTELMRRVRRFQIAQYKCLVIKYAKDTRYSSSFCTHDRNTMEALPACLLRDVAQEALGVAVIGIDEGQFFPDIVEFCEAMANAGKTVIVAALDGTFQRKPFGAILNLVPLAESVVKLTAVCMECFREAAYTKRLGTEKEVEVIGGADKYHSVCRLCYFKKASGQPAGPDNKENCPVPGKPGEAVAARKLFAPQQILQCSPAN
Description: Attana 200 quartz crystal microbalance biosensor, antibody captured by anti-mouse IgG, rTK1 injected, 1:1 model. On the procedure: (§2) In the experiment shown in FIGS. 8A and 8B an LNB Carboxyl sensor chip was used, which was pre-reacted with the Mouse IgG capture kit (Biacore, GE Healthcare) with the amine coupling procedure. The ligands were XPA 210-Ar1 and XPA 210-Ar2 and they were captured to the surface with anti-mouse antibodies by two injections of 50 μg/ml antibody solutions in a 10 mM acetate buffer pH 4.5. An identically treated chip without the capture antibody was used a negative control. Pure recombinant TK1, diluted to 20 μg/ml in 10 mM HEPES, 150 mM NaCl, 0.005% Tween 20, pH 7.4, was injected over the surface at 25 μl/min. The association time was 84 s and the dissociation was measured for another 300 s. Buffer without recombinant TK1 was injected as a blank and subtracted from the sample injection signals.
(§3) An 1:1 binding model was used for calculation of the kinetic constants from the fitted curves of the double reference data as shown in FIGS. 8A and 8B.

Assay [16] concerns the target T16, human recombinant TK1. Description: Attana quartz crystal microbalance, antibody captured by anti-mouse IgG on the chip, recombinant TK1 injected at 20 to 1.25 ug/ml, 1:1 binding model. On the procedure:
as §2, §3

For assay [17], the target named is T2, ASGQPAGPDN
Description: Pepscan ELISA. On the procedure:
as §1

Assay [18] addresses T3, GQPAGPDNKE
Description: Pepscan ELISA. On the procedure: as §1

Assay [19] has as its target T4, PAGPDNKENC
Description: Pepscan ELISA. On the procedure: as §1

Assay [20] addresses T5, GPDNKENCPV
Description: Pepscan ELISA. On the procedure: as §1

Assay [21] concerns the target T6, DNKENCPVPG
Description: Pepscan ELISA. On the procedure:
as §1

Assay [22] addresses T7, KENCPVPGKP
Description: Pepscan ELISA. On the procedure:
as §1

Assay [23] concerns the target T8, NCPVPGKPGE
Description: Pepscan ELISA. On the procedure:
as §1

Assay [24] addresses T9, PVPGKPGEAV
Description: Pepscan ELISA. On the procedure:
as §1

Assay [25] deals with T10, PGKPGEAVAA
Description: Pepscan ELISA. On the procedure: as §1

In assay [26] the target is T11, KPGEAVAARK
Description: Pepscan ELISA. On the procedure: as §1

For assay [27], the target named is T12, GEAVAARKLF
Description: Pepscan ELISA. On the procedure: as §1

Assay [28] concerns the target T13, AVAARKLFAP
Description: Pepscan ELISA. On the procedure:
as §1

Assay [29] deals with T14, AARKLFAPQQ
Description: Pepscan ELISA. On the procedure: as §1

In assay [30] the target is T15, ARKLFAPQQI
Description: Pepscan ELISA. On the procedure:
as §1

B1: XPA 210-Ar3 (antibody, V domains shown)
VH: DVQLQESGPDLVKPSQSLSLTCTVTGYSITSGYSWHWIRQFPGNKLEWLGYIHYSGSTTYNPSLKGRISITRDTSKNQFFLQLNSVTTEDTATYYCARWGTGHWYFDVWAAGTTVTVSS
VL: QAVVTQESALTTSPGKTVTLTCRSSTGAVTTTNYANWVQEKPDHLFTGLIGGTNNRVPGVPARFSGSLIGDKAALTITGAQTEDEAIYFCALWYSNHWVFGGGTKLTVL
notes: Mouse monoclonal from hybridoma; also called Sup-165
Take B1: the “absorbance at 415 nm” value was found to be 0.136 absorbance with XPA 210 peptide; 0.057 absorbance in the assay with ASGQPAGPDN [1]; 0.057 absorbance with GQPAGPDNKE [2]; 0.055 absorbance in the assay with PAGPDNKENC [3]; 0.06 absorbance with GPDNKENCPV [4]; 0.059 absorbance with DNKENCPVPG [5]. Besides, the “absorbance at 415 nm” value was found to be 0.058 absorbance in the assay with KENCPVPGKP [6]; 1.99 absorbance with NCPVPGKPGE [7]; 1.84 absorbance with PVPGKPGEAV [8]; 0.059 absorbance with PGKPGEAVAA [9]; 0.059 absorbance with KPGEAVAARK [10]; 0.057 absorbance with GEAVAARKLF [11]. Also, the “absorbance at 415 nm” value was found to be 0.062 absorbance with AVAARKLFAP [12], 0.06 absorbance in the assay with AARKLFAPQQ [13] and 0.062 absorbance with ARKLFAPQQI [14].

B2: XPA 210-Ar1 (antibody, V domains shown)
VH: QVQLQQSGAELVRPGASMKLSCKALGYTLTDYEMHWVKQTPAHGLEWIGAIHPGYGGTAYNQKFKGKATLTADKSSSTAYMELSSLTSEDSAVYYCTTFITKFDYWGQGTTLTVSS
VL: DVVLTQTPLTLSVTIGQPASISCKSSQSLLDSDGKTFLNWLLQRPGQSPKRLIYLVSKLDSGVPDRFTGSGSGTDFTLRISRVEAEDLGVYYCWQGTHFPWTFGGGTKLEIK
notes: Mouse monoclonal from hybridoma; also called monoclonal antibody XPA 210-Ar1
For the molecule B2, the “absorbance at 415 nm” value with XPA 210 peptide is 3.84 absorbance; with ASGQPAGPDN [1], 0.113 absorbance; in the assay with GQPAGPDNKE [2], 0.108 absorbance; in the assay with PAGPDNKENC [3], 0.12 absorbance; with GPDNKENCPV [4], 0.112 absorbance; with DNKENCPVPG [5], 0.108 absorbance. The “absorbance at 415 nm” value in the assay with KENCPVPGKP [6] amounted to 0.109 absorbance; with NCPVPGKPGE [7], 0.114 absorbance; with PVPGKPGEAV [8], 0.115 absorbance; with PGKPGEAVAA [9] it was 0.112 absorbance; in the assay with KPGEAVAARK [10], 0.116 absorbance; with GEAVAARKLF [11], 3.51 absorbance. The “absorbance at 415 nm” value is 0.125 absorbance with AVAARKLFAP [12], 0.137 absorbance with AARKLFAPQQ [13] and 0.13 absorbance with ARKLFAPQQI [14]. Also, in the assay with human recombinant TK1 [15], the dissociation constant Kd was determined as 650 pM. Moreover, in the assay with human recombinant TK1 [16], the koff worked out at 1.61e-05 s⁻¹. Besides, the kon with human recombinant TK1 [16] turned out to be 24800 M⁻¹ s⁻¹.

B3: XPA 210-Ar2 (antibody, V domains shown)
VH: B2 VH with M18V, L29F, K38R, A42V, H52L, Y55S, F99L, K102T
VL: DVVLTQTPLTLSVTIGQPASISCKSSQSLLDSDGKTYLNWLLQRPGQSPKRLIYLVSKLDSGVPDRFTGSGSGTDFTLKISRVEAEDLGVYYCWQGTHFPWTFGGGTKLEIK
notes: Mouse monoclonal from hybridoma; also called Sup-162; XPA-Ar2
B3: the binding result in the assay with ASGQPAGPDN [17], with GQPAGPDNKE [18], with PAGPDNKENC [19], with GPDNKENCPV [20], with DNKENCPVPG [21] and in the assay with KENCPVPGKP [22] was “no binding (tested: approximately 5 µg/ml)” in each case. Further, the binding result with NCPVPGKPGE [23], with PVPGKPGEAV [24], with PGKPGEAVAA [25], in the assay with KPGEAVAARK [26], with GEAVAARKLF [27] and with AVAARKLFAP [28] was “no binding (tested: approximately 5 µg/ml)” in each case. For the same molecule, the binding result with AARKLFAPQQ [29] and with ARKLFAPQQI [30] was “no binding (tested: approximately 5 µg/ml)” throughout. Moreover, the “absorbance at 415 nm” value in the assay with XPA 210 peptide turned out to be 3.79 absorbance; with ASGQPAGPDN [1], 0.067 absorbance; in the assay with GQPAGPDNKE [2] it was 0.064 absorbance; with PAGPDNKENC [3] it was 0.063 absorbance; with GPDNKENCPV [4], 0.063 absorbance; with DNKENCPVPG [5], 0.063 absorbance. Moreover, the “absorbance at 415 nm” value amounted to 0.063 absorbance with KENCPVPGKP [6]; 0.064 absorbance with NCPVPGKPGE [7]; 0.067 absorbance in the assay with PVPGKPGEAV [8]; 0.067 absorbance in the assay with PGKPGEAVAA [9]; 0.072 absorbance in the assay with KPGEAVAARK [10]; 0.072 absorbance in the assay with GEAVAARKLF [11]. Further, the “absorbance at 415 nm” value in the assay with AVAARKLFAP [12] was determined as 0.077 absorbance; in the assay with AARKLFAPQQ [13], 0.066 absorbance; in the assay with ARKLFAPQQI [14] it was 0.063 absorbance.
